Test results reported in US20080069777A1.
Values belong to the binder of their own block, whether it stands above or below them.

How the values were obtained:
[1] = target: whole LFA-1 in which the α subunit contains an I-domain in the high affinity locked open state, on cells (HA cells) (human) (UniProt P05107); experiment: cell-based or functional assay
[2] = target: whole LFA-1 in which the α subunit contains an I-domain in the high affinity locked open state, on cells (HA cells) (human) (UniProt P05107); experiment: inhibition of ICAM binding to HA cells, Guava analysis; first experiment; first experiment
[3] = target: whole LFA-1 in which the α subunit contains an I-domain in the high affinity locked open state, on cells (HA cells) (human) (UniProt P05107); experiment: inhibition of ICAM binding to HA cells, Guava analysis; second experiment; second experiment, second lot of D2-57 IgG
[4] = target: whole LFA-1 in which the α subunit contains an I-domain in the high affinity locked open state, on cells (HA cells) (human) (UniProt P05107); experiment: inhibition of ICAM binding to HA cells, Guava analysis; third experiment; third experiment
[5] = target: whole LFA-1 in which the α subunit contains an I-domain in the high affinity locked open state, on cells (HA cells) (human) (UniProt P05107); experiment: inhibition of ICAM binding to HA cells, Guava analysis; fourth experiment; fourth experiment
[6] = target: whole LFA-1 in which the α subunit contains an I-domain in the high affinity locked open state, on cells (HA cells) (human) (UniProt P05107); experiment: inhibition of ICAM binding to HA cells, Guava analysis; second experiment; second experiment, first lot of D2-57 IgG
[7] = target: whole LFA-1 in which the α subunit contains an I-domain in the low affinity locked closed state, on cells (LA cells) (human) (UniProt P05107); experiment: phage ELISA, LA form of LFA-1, with Mg2+
[8] = target: whole LFA-1 in which the α subunit contains an I-domain in the high affinity locked open state, on cells (HA cells) (human) (UniProt P05107); experiment: phage ELISA, HA form of LFA-1, without Mg2+; phage ELISA on HA cells, without Mg2+; signal at background
[9] = target: whole LFA-1 in which the α subunit contains an I-domain in the high affinity locked open state, on cells (HA cells) (human) (UniProt P05107); experiment: ICAM-1 blocking assay on HA cells, soluble Fab, flow cytometry; ligand ICAM-1/SV-PE; soluble Fab, ICAM-1 blocking on HA cells, FACS
[10] = target: whole LFA-1 in which the α subunit contains an I-domain in the high affinity locked open state, on cells (HA cells) (human) (UniProt P05107); experiment: phage ELISA, HA form of LFA-1, with Mg2+; phage ELISA on HA cells, with Mg2+
[11] = target: whole LFA-1 in which the α subunit contains an I-domain in the low affinity locked closed state, on cells (LA cells) (human) (UniProt P05107); experiment: phage ELISA, LA form of LFA-1, without Mg2+

IC50 for inhibition of HA cell binding to keratinocytes [1]: 1 nM
IC50 [2]: 0.18 nM
IC50 [3]: 0.62 nM
IC50 [4]: 0.24 nM
IC50 [5]: 0.68 nM
IC50 [6]: 0.59 nM
B1: D2-57 IgG1 (antibody, V domains shown)
VH: EVQLLESGGGLVQPGGSLRLSCAASGFTFSRYVMWWVRQAPGKGLEWVSYIWPSGGNTYYADSVKGRFTISRDNSKNTLYLQMNSLRAEDTAVYYCASSYDFWSNAFDIWGQGTMVTVSS
VL: DIQMTQSPSSLSASVGDRVTITCRASQSIGSYLNWYQQKTGKAPKALIYAASSLQSGVPSRFSGSGSGTDFTLTISSLQLEDFATYYCQQSYSTPSFGQGTKVEIKR

ELISA signal (arbitrary units) [7]: 0.13
ELISA signal (arbitrary units) [8]: 0.09
IC50 [9]: 11.5 nM
ELISA signal (arbitrary units) [10]: 0.68
ELISA signal (arbitrary units) [11]: 0.07
B2: D2-57 Fab (Fab, V domains shown)
VH: B1 VH
VL: B1 VL
